Measurements from patent US9957297B2, “Template-fixed peptidomimetics as inhibitors of FPR1” (POLYPHOR AG, priority 2011, dated 2018).
Bridges are numbered along the chain shown (N, C = ends). [ ]: non-standard residue; d: D form. Phe(4-CF3) = N[C@@H](Cc1ccc(C(F)(F)F)cc1)C(=O)O; Pro(4S-NH2) = N[C@@H]1CN[C@H](C(=O)O)C1; hSer = N[C@@H](CCO)C(=O)O; Dab = NCC[C@H](N)C(=O)O; Dap = NC[C@H](N)C(=O)O

T1: Formyl-Peptide Receptor 1 (UniProt P21462 1-350, limits assumed)
T1 sequence (looked up): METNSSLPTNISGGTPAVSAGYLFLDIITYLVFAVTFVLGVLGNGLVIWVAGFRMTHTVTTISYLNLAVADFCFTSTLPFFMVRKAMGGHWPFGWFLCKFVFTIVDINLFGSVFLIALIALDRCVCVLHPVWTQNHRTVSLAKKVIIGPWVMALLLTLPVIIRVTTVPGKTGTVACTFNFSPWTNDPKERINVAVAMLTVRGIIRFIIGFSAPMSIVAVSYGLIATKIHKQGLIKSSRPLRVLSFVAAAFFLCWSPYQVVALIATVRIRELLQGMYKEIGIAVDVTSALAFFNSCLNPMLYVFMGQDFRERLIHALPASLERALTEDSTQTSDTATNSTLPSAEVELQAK

B1: cyclo(-Tyr-His-Lys-Cys-Trp-Gly-^DPro-Trp-Thr-Ile-Cys-Tyr-Dab-Lys-^DPro-Pro-) (peptide)
peptide: cyclo(YHKCWG[dP]WTICY[Dab]K[dP]P)
modifications: disulfide 4-11
SMILES: CC[C@H](C)[C@@H]1NC(=O)[C@H]([C@@H](C)O)NC(=O)[C@H](Cc2c[nH]c3ccccc23)NC(=O)[C@H]2CCCN2C(=O)CNC(=O)[C@H](Cc2c[nH]c3ccccc23)NC(=O)[C@@H]2CSSC[C@H](NC1=O)C(=O)N[C@@H](Cc1ccc(O)cc1)C(=O)N[C@@H](CCN)C(=O)N[C@@H](CCCCN)C(=O)N1CCC[C@@H]1C(=O)N1CCC[C@H]1C(=O)N[C@@H](Cc1ccc(O)cc1)C(=O)N[C@@H](Cc1c[nH]cn1)C(=O)N[C@@H](CCCCN)C(=O)N2
B2: cyclo(-Tyr-His-Lys-Cys-His-Gly-^DPro-Phe(4CF3)-Thr-Ile-Cys-Tyr-Glu-Lys-^DPro-Pro-) (peptide)
peptide: cyclo(YHKCHG[dP][Phe(4-CF3)]TICYEK[dP]P)
modifications: disulfide 4-11
SMILES: CC[C@H](C)[C@@H]1NC(=O)[C@H]([C@@H](C)O)NC(=O)[C@H](Cc2ccc(C(F)(F)F)cc2)NC(=O)[C@H]2CCCN2C(=O)CNC(=O)[C@H](Cc2c[nH]cn2)NC(=O)[C@@H]2CSSC[C@H](NC1=O)C(=O)N[C@@H](Cc1ccc(O)cc1)C(=O)N[C@@H](CCC(=O)O)C(=O)N[C@@H](CCCCN)C(=O)N1CCC[C@@H]1C(=O)N1CCC[C@H]1C(=O)N[C@@H](Cc1ccc(O)cc1)C(=O)N[C@@H](Cc1c[nH]cn1)C(=O)N[C@@H](CCCCN)C(=O)N2
B3: cyclo(-Tyr-His-Lys-Cys-His-Gly-^DPro-Trp-Thr-Leu-Cys-Tyr-Glu-Lys-^DPro-Pro-) (peptide)
peptide: cyclo(YHKCHG[dP]WTLCYEK[dP]P)
modifications: disulfide 4-11
SMILES: CC(C)C[C@@H]1NC(=O)[C@H]([C@@H](C)O)NC(=O)[C@H](Cc2c[nH]c3ccccc23)NC(=O)[C@H]2CCCN2C(=O)CNC(=O)[C@H](Cc2c[nH]cn2)NC(=O)[C@@H]2CSSC[C@H](NC1=O)C(=O)N[C@@H](Cc1ccc(O)cc1)C(=O)N[C@@H](CCC(=O)O)C(=O)N[C@@H](CCCCN)C(=O)N1CCC[C@@H]1C(=O)N1CCC[C@H]1C(=O)N[C@@H](Cc1ccc(O)cc1)C(=O)N[C@@H](Cc1c[nH]cn1)C(=O)N[C@@H](CCCCN)C(=O)N2
B4: cyclo(-His-His-Lys-Cys-His-Gly-^DPro-Trp-Thr-Ile-Cys-Tyr-Glu-Lys-^DPro-Pro-) (peptide)
peptide: cyclo(HHKCHG[dP]WTICYEK[dP]P)
modifications: disulfide 4-11
SMILES: CC[C@H](C)[C@@H]1NC(=O)[C@H]([C@@H](C)O)NC(=O)[C@H](Cc2c[nH]c3ccccc23)NC(=O)[C@H]2CCCN2C(=O)CNC(=O)[C@H](Cc2c[nH]cn2)NC(=O)[C@@H]2CSSC[C@H](NC1=O)C(=O)N[C@@H](Cc1ccc(O)cc1)C(=O)N[C@@H](CCC(=O)O)C(=O)N[C@@H](CCCCN)C(=O)N1CCC[C@@H]1C(=O)N1CCC[C@H]1C(=O)N[C@@H](Cc1c[nH]cn1)C(=O)N[C@@H](Cc1c[nH]cn1)C(=O)N[C@@H](CCCCN)C(=O)N2
B5: cyclo(-Tyr-His-Ala-Cys-Trp-Gly-^DPro-Trp-Thr-Ile-Cys-Tyr-Gln-Lys-^DPro-Glu-) (peptide)
peptide: cyclo(YHACWG[dP]WTICYQK[dP]E)
modifications: disulfide 4-11
SMILES: CC[C@H](C)[C@@H]1NC(=O)[C@H]([C@@H](C)O)NC(=O)[C@H](Cc2c[nH]c3ccccc23)NC(=O)[C@H]2CCCN2C(=O)CNC(=O)[C@H](Cc2c[nH]c3ccccc23)NC(=O)[C@@H]2CSSC[C@H](NC1=O)C(=O)N[C@@H](Cc1ccc(O)cc1)C(=O)N[C@@H](CCC(N)=O)C(=O)N[C@@H](CCCCN)C(=O)N1CCC[C@@H]1C(=O)N[C@@H](CCC(=O)O)C(=O)N[C@@H](Cc1ccc(O)cc1)C(=O)N[C@@H](Cc1c[nH]cn1)C(=O)N[C@@H](C)C(=O)N2
B6: cyclo(-Tyr-His-Lys-Cys-His-Gly-^DPro-Trp-Thr-Ile-Cys-Tyr-Hse-Lys-^DPro-Pro-) (peptide)
peptide: cyclo(YHKCHG[dP]WTICY[hSer]K[dP]P)
modifications: disulfide 4-11
SMILES: CC[C@H](C)[C@@H]1NC(=O)[C@H]([C@@H](C)O)NC(=O)[C@H](Cc2c[nH]c3ccccc23)NC(=O)[C@H]2CCCN2C(=O)CNC(=O)[C@H](Cc2c[nH]cn2)NC(=O)[C@@H]2CSSC[C@H](NC1=O)C(=O)N[C@@H](Cc1ccc(O)cc1)C(=O)N[C@@H](CCO)C(=O)N[C@@H](CCCCN)C(=O)N1CCC[C@@H]1C(=O)N1CCC[C@H]1C(=O)N[C@@H](Cc1ccc(O)cc1)C(=O)N[C@@H](Cc1c[nH]cn1)C(=O)N[C@@H](CCCCN)C(=O)N2
B7: cyclo(-Tyr-His-Ala-Cys-His-Gly-^DPro-Trp-Thr-Ile-Cys-Tyr-Gln-Lys-^DPro-Trp-) (peptide)
peptide: cyclo(YHACHG[dP]WTICYQK[dP]W)
modifications: disulfide 4-11
SMILES: CC[C@H](C)[C@@H]1NC(=O)[C@H]([C@@H](C)O)NC(=O)[C@H](Cc2c[nH]c3ccccc23)NC(=O)[C@H]2CCCN2C(=O)CNC(=O)[C@H](Cc2c[nH]cn2)NC(=O)[C@@H]2CSSC[C@H](NC1=O)C(=O)N[C@@H](Cc1ccc(O)cc1)C(=O)N[C@@H](CCC(N)=O)C(=O)N[C@@H](CCCCN)C(=O)N1CCC[C@@H]1C(=O)N[C@@H](Cc1c[nH]c3ccccc13)C(=O)N[C@@H](Cc1ccc(O)cc1)C(=O)N[C@@H](Cc1c[nH]cn1)C(=O)N[C@@H](C)C(=O)N2
B8: cyclo(-Tyr-His-Lys-Cys-His-Gly-^DAla-Trp-Thr-Ile-Cys-Tyr-Glu-Lys-^DPro-Pro-) (peptide)
peptide: cyclo(YHKCHG[dA]WTICYEK[dP]P)
modifications: disulfide 4-11
SMILES: CC[C@H](C)[C@@H]1NC(=O)[C@H]([C@@H](C)O)NC(=O)[C@H](Cc2c[nH]c3ccccc23)NC(=O)[C@@H](C)NC(=O)CNC(=O)[C@H](Cc2c[nH]cn2)NC(=O)[C@@H]2CSSC[C@H](NC1=O)C(=O)N[C@@H](Cc1ccc(O)cc1)C(=O)N[C@@H](CCC(=O)O)C(=O)N[C@@H](CCCCN)C(=O)N1CCC[C@@H]1C(=O)N1CCC[C@H]1C(=O)N[C@@H](Cc1ccc(O)cc1)C(=O)N[C@@H](Cc1c[nH]cn1)C(=O)N[C@@H](CCCCN)C(=O)N2
B9: cyclo(-Tyr-His-Ile-Cys-His-Gly-^DPro-Trp-Thr-Ile-Cys-Tyr-Glu-Lys-^DPro-Pro-) (peptide)
peptide: cyclo(YHICHG[dP]WTICYEK[dP]P)
modifications: disulfide 4-11
SMILES: CC[C@H](C)[C@@H]1NC(=O)[C@H](Cc2c[nH]cn2)NC(=O)[C@H](Cc2ccc(O)cc2)NC(=O)[C@@H]2CCCN2C(=O)[C@H]2CCCN2C(=O)[C@H](CCCCN)NC(=O)[C@H](CCC(=O)O)NC(=O)[C@H](Cc2ccc(O)cc2)NC(=O)[C@@H]2CSSC[C@H](NC1=O)C(=O)N[C@@H](Cc1c[nH]cn1)C(=O)NCC(=O)N1CCC[C@@H]1C(=O)N[C@@H](Cc1c[nH]c3ccccc13)C(=O)N[C@@H]([C@@H](C)O)C(=O)N[C@@H]([C@@H](C)CC)C(=O)N2
B10: cyclo(-Tyr-His-Lys-Cys-Trp-Gly-^DAla-Trp-Thr-Ile-Cys-Tyr-Glu-Lys-^DPro-Pro-) (peptide)
peptide: cyclo(YHKCWG[dA]WTICYEK[dP]P)
modifications: disulfide 4-11
SMILES: CC[C@H](C)[C@@H]1NC(=O)[C@H]([C@@H](C)O)NC(=O)[C@H](Cc2c[nH]c3ccccc23)NC(=O)[C@@H](C)NC(=O)CNC(=O)[C@H](Cc2c[nH]c3ccccc23)NC(=O)[C@@H]2CSSC[C@H](NC1=O)C(=O)N[C@@H](Cc1ccc(O)cc1)C(=O)N[C@@H](CCC(=O)O)C(=O)N[C@@H](CCCCN)C(=O)N1CCC[C@@H]1C(=O)N1CCC[C@H]1C(=O)N[C@@H](Cc1ccc(O)cc1)C(=O)N[C@@H](Cc1c[nH]cn1)C(=O)N[C@@H](CCCCN)C(=O)N2
B11: cyclo(-Dab-His-Lys-Cys-His-Gly-^DPro-Trp-Thr-Ile-Cys-Tyr-Glu-Lys-^DPro-Pro-) (peptide)
peptide: cyclo([Dab]HKCHG[dP]WTICYEK[dP]P)
modifications: disulfide 4-11
SMILES: CC[C@H](C)[C@@H]1NC(=O)[C@H]([C@@H](C)O)NC(=O)[C@H](Cc2c[nH]c3ccccc23)NC(=O)[C@H]2CCCN2C(=O)CNC(=O)[C@H](Cc2c[nH]cn2)NC(=O)[C@@H]2CSSC[C@H](NC1=O)C(=O)N[C@@H](Cc1ccc(O)cc1)C(=O)N[C@@H](CCC(=O)O)C(=O)N[C@@H](CCCCN)C(=O)N1CCC[C@@H]1C(=O)N1CCC[C@H]1C(=O)N[C@@H](CCN)C(=O)N[C@@H](Cc1c[nH]cn1)C(=O)N[C@@H](CCCCN)C(=O)N2
B12: cyclo(-Tyr-His-Lys-Cys-His-Gly-^DPro-Trp-Thr-Val-Cys-Tyr-Glu-Lys-^DPro-Pro-) (peptide)
peptide: cyclo(YHKCHG[dP]WTVCYEK[dP]P)
modifications: disulfide 4-11
SMILES: CC(C)[C@@H]1NC(=O)[C@H]([C@@H](C)O)NC(=O)[C@H](Cc2c[nH]c3ccccc23)NC(=O)[C@H]2CCCN2C(=O)CNC(=O)[C@H](Cc2c[nH]cn2)NC(=O)[C@@H]2CSSC[C@H](NC1=O)C(=O)N[C@@H](Cc1ccc(O)cc1)C(=O)N[C@@H](CCC(=O)O)C(=O)N[C@@H](CCCCN)C(=O)N1CCC[C@@H]1C(=O)N1CCC[C@H]1C(=O)N[C@@H](Cc1ccc(O)cc1)C(=O)N[C@@H](Cc1c[nH]cn1)C(=O)N[C@@H](CCCCN)C(=O)N2
B13: cyclo(-Dab-His-Lys-Cys-Trp-Gly-^DPro-Trp-Thr-Ile-Cys-Tyr-Glu-Lys-^DPro-Pro-) (peptide)
peptide: cyclo([Dab]HKCWG[dP]WTICYEK[dP]P)
modifications: disulfide 4-11
SMILES: CC[C@H](C)[C@@H]1NC(=O)[C@H]([C@@H](C)O)NC(=O)[C@H](Cc2c[nH]c3ccccc23)NC(=O)[C@H]2CCCN2C(=O)CNC(=O)[C@H](Cc2c[nH]c3ccccc23)NC(=O)[C@@H]2CSSC[C@H](NC1=O)C(=O)N[C@@H](Cc1ccc(O)cc1)C(=O)N[C@@H](CCC(=O)O)C(=O)N[C@@H](CCCCN)C(=O)N1CCC[C@@H]1C(=O)N1CCC[C@H]1C(=O)N[C@@H](CCN)C(=O)N[C@@H](Cc1c[nH]cn1)C(=O)N[C@@H](CCCCN)C(=O)N2

Molecular target: T1, Formyl-Peptide Receptor 1
Assay: cell-based or functional assay

β-Arrestin IC50 [nM]	Binder
633	B1
114	B2
153	B3
530	cyclo(YHKCHG[dP]WTICYEK[dP][Pro(4S-NH2)]) (disulfide 4-11) [cyclo(-Tyr-His-Lys-Cys-His-Gly-^DPro-Trp-Thr-Ile-Cys-Tyr-Glu-Lys-^DPro-Pro((4S)NH2)-)]
239	B4
60	B5
138	B6
147	B7
77	B8
50	B9
69	B10
194	B11
232	B12
248	B13
93	cyclo(YH[Dab]CWG[dP]WTICYEK[dP]P) (disulfide 4-11) [cyclo(-Tyr-His-Dab-Cys-Trp-Gly-^DPro-Trp-Thr-Ile-Cys-Tyr-Glu-Lys-^DPro-Pro-)]
290	cyclo(YH[Dab]CHG[dP]WTICYEK[dP]P) (disulfide 4-11) [cyclo(-Tyr-His-Dab-Cys-His-Gly-^DPro-Trp-Thr-Ile-Cys-Tyr-Glu-Lys-^DPro-Pro-)]
271	cyclo(YH[Dap]CHG[dP]WTICYEK[dP]P) (disulfide 4-11) [cyclo(-Tyr-His-Dap-Cys-His-Gly-^DPro-Trp-Thr-Ile-Cys-Tyr-Glu-Lys-^DPro-Pro-)]
